What was measured:
[1] = test system: DNA present as chromatin or apoptotic bodies; conditions: background, Sisirak et al 2016, Napirei et al 2009, Wilber et al 2002; cited from earlier work
plasmid DNA = test: Plasmid DNA degradation by Dnase1L3 (agarose gel); type: biochemical; conditions: increasing dilutions with 200 ng plasmid DNA, 30 min at 37° C., 200 mM Tris pH 7.4, 50 mM MgCl2, 20 mM CaCl2; 1% agarose gel
Description: FIGS. 1A to 1E show the results from the modified Dnase1L3 of the present invention. […] (FIG. 1A) Dnase1L3 was affinity purified with Nickel NTA agarose, then cleaved with Tobacco Etch Virus protease TEV protease. Cleaved Dnase1L3 was further purified by anion exchange and then by size exclusion chromatography. Fractions from the final size exclusion purification were resolved by SDS-PAGE and Coomassie stained. Fractions 7-9 show purified Dnase1L3 at the expected 36 kDa size. Molecular weight in kDa is shown. (FIG. 1B) The indicated amounts of purified Dnase1L3 were resolved by SDS-PAGE, transferred to nitrocellulose and probed with anti-Dnase1L3 primary antibody, anti-rabbit HRP secondary antibody and developed with enhanced chemiluminescence. (FIG. 1C) Recombinant, […] mM Tris pH 7.4, 50 mM MgCl2, 20 mM CaCl2 with or without 100 μM Dnase1L3 inhibitors fmoc-D-cyclohexylalanine (FCA) or Pontacyl Violet 6R (PV). Remaining plasmid DNA resolved on a 1% agarose gel. # indicates non-degraded DNA (i.e. supercoiled, nicked and linear DNA). The absence of DNA indicates degradation. (FIG. 1D) Purified Dnase1L3 was conjugated to PEG. Unconjugated Dnase1L3, PEGylated Dnase1L3 (PEG-D1L3), or free PEG were resolved by SDS-PAGE and visualized with Coomassie Blue. The 36 kDa band has increased in size to 41 kDa, indicating successful PEGylation. Molecular weight in kDa is shown. […]

B1: Dnase1: DNase I protein of the background art; poorly digests chromatin DNA (protein, UniProt P24855 23-282, looked up)
Deoxyribonuclease-1: LKIAAFNIQTFGETKMSNATLVSYIVQILSRYDIALVQEVRDSHLTAVGKLLDNLNQDAPDTYHYVVSEPLGRNSYKERYLFVYRPDQVSAVDSYYYDDGCEPCGNDTFNREPAIVRFFSRFTEVREFAIVPLHAAPGDAVAEIDALYDVYLDVQEKWGLEDVMLMGDFNAGCSYVRPSQWSSIRLWTSPTFQWLIPDSADTTATPTHCAYDRIVVAGMLLRGAVVPDSALPFNFQAAYGLSDQLAQAISDHYPVEVMLK
- digestion of DNA present as chromatin or apoptotic bodies [1]: poorly digests

B2: PEGylated Dnase1L3: Purified Dnase1L3 conjugated to PEG (PEG-maleimide); band shifts from 36 kDa to 41 kDa (conjugate, UniProt Q13609 21-305, looked up)
Deoxyribonuclease gamma: MRICSFNVRSFGESKQEDKNAMDVIVKVIKRCDIILVMEIKDSNNRICPILMEKLNRNSRRGITYNYVISSRLGRNTYKEQYAFLYKEKLVSVKRSYHYHDYQDGDADVFSREPFVVWFQSPHTAVKDFVIIPLHTTPETSVKEIDELVEVYTDVKHRWKAENFIFMGDFNAGCSYVPKKAWKNIRLRTDPRFVWLIGDQEDTTVKKSTNCAYDRIVLRGQEIVSSVVPKSNSVFDFQKAYKLTEEEALDVSDHFPVEFKLQSSRAFTNSKKSVTLRKKTKSKRS
modifications: PEG-maleimide conjugate
notes: Purified Dnase1L3 conjugated to PEG (PEG-maleimide); band shifts from 36 kDa to 41 kDa
- endonuclease activity (degradation of plasmid DNA) (plasmid DNA): potent endonuclease

From patent US12577571B2, “Mutant DNase1L3 with improved serum half-life” (Texas Tech University System, priority 2019, dated 2026)
